Numbering of substitutions follows the chain as printed.
Key:
Experiment in all cases: cell-based or functional assay
[1] = biological target: Env from subtype B plasma isolates (panel of 142 HIV-1 pseudotyped viruses)
[2] = biological target: 152 patient-derived subtype B viruses obtained from pre-ART plasma
[3] = biological target: HIV-1 envelope glycoprotein gp120 of virus CHO77 (HIV-1 subtype B, virus CHO77)
[4] = biological target: HIV-1 envelope glycoprotein gp120 of virus BaL (HIV-1 BaL (lab adapted strain, subtype B))
[5] = biological target: HIV-1 envelope glycoprotein gp120 of virus 92US657 (HIV-1 subtype B, isolate 92US657)
[6] = biological target: HIV-1 envelope glycoprotein (Env, gp120) of virus 7552 (HIV-1)
[7] = biological target: HIV-1 envelope glycoprotein (Env, gp120) of virus 7051 (HIV-1)
[8] = biological target: HIV-1 envelope glycoprotein (Env, gp120) of virus VS017 (HIV-1)
[9] = biological target: HIV-1 envelope glycoprotein (Env, gp120) of virus 8134 (HIV-1)
[10] = biological target: HIV-1 envelope glycoprotein (Env, gp120) of virus VS001 (HIV-1)
[11] = biological target: HIV-1 envelope glycoprotein (Env, gp120) of virus 8117 (HIV-1)
[12] = biological target: HIV-1 envelope glycoprotein (Env, gp120) of virus VS039 (HIV-1)
[13] = biological target: HIV-1 envelope glycoprotein (Env, gp120) of virus 8318 (HIV-1)
[14] = biological target: HIV-1 envelope glycoprotein (Env, gp120) of virus 92HT593 (HIV-1)
[15] = biological target: HIV-1 envelope glycoprotein (Env, gp120) of virus 1413 (HIV-1)
[16] = biological target: HIV-1 envelope glycoprotein (Env, gp120) of virus 8320 (HIV-1)
[17] = biological target: HIV-1 envelope glycoprotein (Env, gp120) of virus 302076 (HIV-1)
[18] = biological target: HIV-1 envelope glycoprotein (Env, gp120) of virus VS049 (HIV-1)
[19] = biological target: HIV-1 envelope glycoprotein (Env, gp120) of virus 92US657 (HIV-1)
[20] = biological target: HIV-1 envelope glycoprotein (Env, gp120) of virus VS046 (HIV-1)
[21] = biological target: HIV-1 envelope glycoprotein (Env, gp120) of virus 7467 (HIV-1)
[22] = biological target: HIV-1 envelope glycoprotein (Env, gp120) of virus 8106 (HIV-1)
[23] = biological target: HIV-1 envelope glycoprotein (Env, gp120) of virus REJO (HIV-1)
[24] = biological target: HIV-1 envelope glycoprotein (Env, gp120) of virus CHO77 (HIV-1)
[25] = biological target: HIV-1 envelope glycoprotein (Env, gp120) of virus 8110 (HIV-1)
[26] = biological target: HIV-1 envelope glycoprotein (Env, gp120) of virus 92US712 (HIV-1)
[27] = biological target: HIV-1 envelope glycoprotein (Env, gp120) of virus 7103 (HIV-1)
[28] = biological target: HIV-1 envelope glycoprotein (Env, gp120) of virus 7595 (HIV-1)
[29] = biological target: HIV-1 envelope glycoprotein (Env, gp120) of virus VS042 (HIV-1)
[30] = biological target: HIV-1 envelope glycoprotein (Env, gp120) of virus 1012 (HIV-1)
[31] = biological target: HIV-1 envelope glycoprotein (Env, gp120) of virus VS026 (HIV-1)
[32] = biological target: HIV-1 envelope glycoprotein (Env, gp120) of virus VS044 (HIV-1)
[33] = biological target: HIV-1 envelope glycoprotein (Env, gp120) of virus 1003 (HIV-1)
[34] = biological target: HIV-1 envelope glycoprotein (Env, gp120) of virus 7141 (HIV-1)
[35] = biological target: HIV-1 envelope glycoprotein (Env, gp120) of virus 7576 (HIV-1)
[36] = biological target: HIV-1 envelope glycoprotein (Env, gp120) of virus 8176 (HIV-1)
[37] = biological target: HIV-1 envelope glycoprotein (Env, gp120) of virus VS004 (HIV-1)
[38] = biological target: HIV-1 envelope glycoprotein (Env, gp120) of virus 1489 (HIV-1)
[39] = biological target: HIV-1 envelope glycoprotein (Env, gp120) of virus VS043 (HIV-1)
[40] = biological target: HIV-1 envelope glycoprotein (Env, gp120) of virus VS030 (HIV-1)
[41] = biological target: HIV-1 envelope glycoprotein (Env, gp120) of virus THRO (HIV-1)
[42] = biological target: HIV-1 envelope glycoprotein (Env, gp120) of virus 92US727 (HIV-1)
[43] = biological target: HIV-1 envelope glycoprotein (Env, gp120) of virus 7015 (HIV-1)
[44] = biological target: HIV-1 envelope glycoprotein (Env, gp120) of virus 7714 (HIV-1)

B1: Antibody A-1 (antibody, human IgG1, kappa)
heavy: QVQLLQSGAAVTKPGASVRVSCEASGYNIRDYFIHWWRQAPGQGLQWVGWINPKTGQPNNPRQFQGRVSLTRHASWDFDTFSFYMDLKALRSDDTAVYFCARQRSDYWDFDVWGSGTQVTVSSASTKGPSVFPLAPSSKSTSGGTAALGCLVKDYFPEPVTVSWNSGALTSGVHTFPAVLQSSGLYSLSSVVTVPSSSLGTQTYICNVNHKPSNTKVDKKVEPKSCDKTHTCPPCPAPELLAGPDVFLFPPKPKDTLMISRTPEVTCVVVDVSHEDPEVKFNWYVDGVEVHNAKTKPREEQYNSTYRVVSVLTVLHQDWLNGKEYKCKVSNKALPLPEEKTISKAKGQPREPQVYTLPPSREEMTKNQVSLTCLVKGFYPSDIAVEWESNGQPENNYKTTPPVLDSDGSFFLYSKLTVDKSRWQQGNVFSCSVLHEALHSHYTQKSLSLSPGK
light: DIQMTQSPSSLSASVGDTVTITCQANGYLNWYQQRRGKAPKLLIYDGSKLERGVPSRFSGRRWGQEYNLTINNLQPEDIATYFCQVYEFVVPGTRLDLKRTVAAPSVFIFPPSDEQLKSGTASVVCLLNNFYPREAKVQWKVDNALQSGNSQESVTEQDSKDSTYSLSSTLTLSKADYEKHKVYACEVTHQGLSSPVTKSFNRGEC
Binder B1 has a Median IC95 (neutralization) [1] of 1.09 µg/mL.

B2: 1.52.90-1 (antibody, V domains shown)
VH: QVQLLQSGAAVTKPGASVRVSCEASGYNIRDYFIHWWRQAPGQGLQWVGWINPKTGQPNNPRQFQGRVSLTRHASFDFDTFSFYMDLKALRSDDTAVYFCARQRSDYWDFDVWGSGTQVTVSS
VL: DIQMTQSPSSLSASVGDRATITCQANGYLNWYQQRRGKAPKLLIYDGSKLERGVPSRFSGSRWGQEYNLTISSLQPEDIATYFCQVYEFFGPGTRLDLKR
In the case of B2, the Breadth (% viruses neutralized with an IC95 ≤ 50 µg/mL) [2] is reported as 78%, the Geomean IC95 (neutralization) [2] is reported as 4.56 µg/mL and the Median IC95 (neutralization) [2] is reported as 4.42 µg/mL.

B3: Antibody 1.36.35-1 (antibody, human IgG1, kappa, V domains shown)
VH: QVQLVQSGAEVKKPGASVRVSCKASGYNIRDYFMHWWRQAPGQGLQWVGWINPKTGQPNNPRQFQGRVTMTRHASWDFDTFSAYMDLSRLRSDDTATYFCARQRTDYWDFDVWGQGTMVTVSS
VL: B2 VL with A19V, R35K, R36P, K49N, R52T, N68T, F90V, R95N, L98I
For B3, the Virus Neutralization Potency (IC50) [3] was 0.32 µg/mL, the Virus Neutralization Potency (IC50) [4] was greater than 20 µg/mL and the Virus Neutralization Potency (IC50) [5] was 5.37 µg/mL.

B4: Antibody 1.1.104-1 (antibody, human IgG1, kappa, V domains shown)
VH: B2 VH with F76W
VL: B2 VL with R18T, S61R, N68T, S72N, S73N
B4 gave a Virus Neutralization Potency [6] greater than 80 µg/mL, a Virus Neutralization Potency [7] of 1.32 µg/mL and a Virus Neutralization Potency [8] of 2.33 µg/mL. For the same binder, the Virus Neutralization Potency [9] was 6.07 µg/mL, the Virus Neutralization Potency [10] was 0.34 µg/mL and the Virus Neutralization Potency [11] was 1.22 µg/mL. The Virus Neutralization Potency [12] was 0.1 µg/mL, the Virus Neutralization Potency [13] was 0.32 µg/mL and the Virus Neutralization Potency [14] was 0.28 µg/mL. For the same binder, the Virus Neutralization Potency [15] was 4.34 µg/mL, the Virus Neutralization Potency [16] was 4.34 µg/mL and the Virus Neutralization Potency [17] was 0.1 µg/mL. For the same binder, the Virus Neutralization Potency [18] was greater than 100 µg/mL, the Virus Neutralization Potency [19] was 0.36 µg/mL and the Virus Neutralization Potency [20] was 0.03 µg/mL. The Virus Neutralization Potency [21] was 0.06 µg/mL, the Virus Neutralization Potency [22] was 2.8 µg/mL and the Virus Neutralization Potency [23] was 0.02 µg/mL. The Virus Neutralization Potency [24] was 0.03 µg/mL, the Virus Neutralization Potency [25] was 4.19 µg/mL and the Virus Neutralization Potency [26] was 0.04 µg/mL. For the same binder, the Virus Neutralization Potency [27] was 1.82 µg/mL, the Virus Neutralization Potency [28] was 8.47 µg/mL and the Virus Neutralization Potency [29] was 2.33 µg/mL. It also gave a Virus Neutralization Potency [30] of 2.87 µg/mL, a Virus Neutralization Potency [31] of 0.19 µg/mL and a Virus Neutralization Potency [32] of 0.28 µg/mL. The Virus Neutralization Potency [33] was 1.44 µg/mL, the Virus Neutralization Potency [34] was 6.57 µg/mL and the Virus Neutralization Potency [35] was 1.1 µg/mL. It also gave a Virus Neutralization Potency [36] of 0.16 µg/mL, a Virus Neutralization Potency [37] of 4.8 µg/mL and a Virus Neutralization Potency [38] of 0.28 µg/mL. For the same binder, the Virus Neutralization Potency [39] was 1.49 µg/mL, the Virus Neutralization Potency [40] was 7.9 µg/mL and the Virus Neutralization Potency [41] was 4.27 µg/mL. For the same binder, the Virus Neutralization Potency [42] was 10.6 µg/mL and the Virus Neutralization Potency [43] was 0.67 µg/mL.

B5: Antibody 1.1.119-1 (antibody, human IgG1, kappa, V domains shown)
VH: B2 VH with F76W
VL: B2 VL with N68T
Binder B5 has a Virus Neutralization Potency [6] greater than 80 µg/mL, a Virus Neutralization Potency [7] of 1.89 µg/mL and a Virus Neutralization Potency [8] of 2.75 µg/mL. It also gave a Virus Neutralization Potency [9] of 3.44 µg/mL, a Virus Neutralization Potency [10] of 0.37 µg/mL and a Virus Neutralization Potency [11] of 1.66 µg/mL. The Virus Neutralization Potency [12] was 0.13 µg/mL, the Virus Neutralization Potency [13] was 0.42 µg/mL and the Virus Neutralization Potency [14] was 0.15 µg/mL. The Virus Neutralization Potency [15] was 4.52 µg/mL, the Virus Neutralization Potency [16] was 1.47 µg/mL and the Virus Neutralization Potency [17] was 0.08 µg/mL. The Virus Neutralization Potency [18] was greater than 100 µg/mL, the Virus Neutralization Potency [19] was 0.3 µg/mL and the Virus Neutralization Potency [20] was 0.03 µg/mL. The Virus Neutralization Potency [21] was 0.19 µg/mL, the Virus Neutralization Potency [22] was 1.44 µg/mL and the Virus Neutralization Potency [23] was 0.03 µg/mL. The Virus Neutralization Potency [24] was 0.02 µg/mL, the Virus Neutralization Potency [25] was 2.37 µg/mL and the Virus Neutralization Potency [26] was 0.03 µg/mL. It also gave a Virus Neutralization Potency [27] of 1.16 µg/mL, a Virus Neutralization Potency [44] of 1.93 µg/mL and a Virus Neutralization Potency [28] of 3.07 µg/mL. For the same binder, the Virus Neutralization Potency [29] was 2.19 µg/mL, the Virus Neutralization Potency [30] was 1.06 µg/mL and the Virus Neutralization Potency [31] was 0.14 µg/mL. It also gave a Virus Neutralization Potency [32] of 0.2 µg/mL, a Virus Neutralization Potency [33] of 0.91 µg/mL and a Virus Neutralization Potency [34] of 4.98 µg/mL. It also gave a Virus Neutralization Potency [35] of 0.6 µg/mL, a Virus Neutralization Potency [36] of 0.27 µg/mL and a Virus Neutralization Potency [37] of 6.02 µg/mL. For the same binder, the Virus Neutralization Potency [38] was 0.17 µg/mL, the Virus Neutralization Potency [39] was 0.81 µg/mL and the Virus Neutralization Potency [40] was 4.96 µg/mL. The Virus Neutralization Potency [41] was 2.8 µg/mL, the Virus Neutralization Potency [42] was 43.7 µg/mL and the Virus Neutralization Potency [43] was 1.08 µg/mL.
